The values below come from patent US20210047432A1 (DIACCURATE, published 2021).

The target in test [1] is T1, recombinant human sPLA2-GIB (mature secreted group IB pancreatic phospholipase A2) (human, UniProt P04054 23-148).
T1 construct: also called sPLA2-IB; PLA2-GIB mature form
Nature of the test: SPR (BIAcore 2000), antibody captured, antigen in solution. As for the experimental part:
(§1) The affinity constants (KD) of the pro-sPLA2-GIB and sPLA2-GIB binding to the #2B, #2B1 and #2B2 antibodies were determined by surface kinetics on a real-time biosensor surface plasmon resonance assay (BIAcore™). More specifically, the affinity of the antibodies for human pro-sPLA2-IB and sPLA2-IB was measured using a BIAcore® 2000. The antibody was captured on an anti-mouse IgG surface and exposed to various concentrations of recombinant pro-sPLA2-IB and sPLA2-IB protein. Kinetic analysis using BIAevaluation™ software was performed to obtain the association and dissociation rate constants.
(§2) The affinity constants (KD) of the pro-sPLA2-GIB and sPLA2-GIB binding to #2B1 and #2B2 were determined by surface kinetics on a real-time biosensor surface plasmon resonance assay (BIAcore™). The antibody was captured on an anti-mouse IgG surface and exposed to various concentrations of recombinant pro-sPLA2-IB and sPLA2-IB protein. Kinetic analysis using BIAevaluation™ software was performed to obtain the association and dissociation rate constants (Table 7).
On the technique in general: Surface plasmon resonance follows binding to a sensor surface in real time, without labels.

Test [2] has as its target T2, recombinant human pro-sPLA2-GIB (human, UniProt P04054 16-148).
T2 construct: also called pro-sPLA2-IB; proPLA2-GIB
The description is as above. How it is done: as §1, §2

Another test has as its target T3, human FcγRI (human, UniProt P12314 16-374).
T3 construct: whole, on cells; also called hFcγRI
Nature of the test: flow cytometry, monomeric IgG on CHO cells expressing the receptor. How it is done: (§3) Monomeric IgG binding was tested by incubating the #2B, #2B1 and #2B2 antibodies (100 ng/mL) with 1×10⁵ CHO cells stably expressing human FcγRs for 30 min on ice. The cells were then washed, detached, fixed, and analyzed by flow cytometry (FACSCalibur; BD Biosciences).
(§4) The binding of monomeric #2B, #2B1 and #2B2 to human FcγRs was tested by flow cytometry by incubating the mAbs with CHO cells stably expressing human FcγRI, FcγRIIA (H131), FcγRIIA(R131), FcγRIIB, FcγRIIIA(F176), FcγRIIIA(V176), FcγRIIIB(NA1), FcγRIIIB(NA2), and FcγRIIIB(SH), (REF P. Bruhns). As presented in FIG. 9, #2B is binding to hFcγRI and hFcγRIIIA(V176) only, whereas no monomeric binding of #2B1 and #2B2 to all tested hFcγRs was observed. Antibody-antigen immune complex was tested by first incubating the mAb with the antigen and then, incubating the immune complexes formed with CHO cells stably expressing human FcγRs. The immune complexe of #2B is binding to all tested hFcγRs, except hFcγRIIB (FIG. 10). Weak binding is observed for immune complex of #2B1 to hFcγRIIIA(V176) (data not shown), whereas no immune complex binding of #2B2 to any tested hFcγRs (data not shown).

In the next test the target is T4, human FcγRIIA (H131) (human, UniProt P12318 34-317).
T4 construct: whole, on cells; Allelic variant with His at 131 (mature numbering as printed)
T4 sequence (looked up): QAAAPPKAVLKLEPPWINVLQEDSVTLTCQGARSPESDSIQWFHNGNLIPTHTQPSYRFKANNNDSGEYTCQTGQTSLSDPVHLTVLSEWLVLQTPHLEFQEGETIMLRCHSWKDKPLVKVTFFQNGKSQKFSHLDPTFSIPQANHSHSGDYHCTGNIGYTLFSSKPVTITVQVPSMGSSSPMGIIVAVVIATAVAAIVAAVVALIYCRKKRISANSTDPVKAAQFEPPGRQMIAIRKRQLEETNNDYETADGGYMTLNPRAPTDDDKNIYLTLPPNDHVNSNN
The test is described as above. As for the experimental part:
as §3, §4

The next test concerns the target T5, human FcγRIIA(R131) (human, UniProt P12318 34-317).
T5 construct: whole, on cells; Allelic variant with Arg at 131 (so in the source)
T5 sequence (looked up): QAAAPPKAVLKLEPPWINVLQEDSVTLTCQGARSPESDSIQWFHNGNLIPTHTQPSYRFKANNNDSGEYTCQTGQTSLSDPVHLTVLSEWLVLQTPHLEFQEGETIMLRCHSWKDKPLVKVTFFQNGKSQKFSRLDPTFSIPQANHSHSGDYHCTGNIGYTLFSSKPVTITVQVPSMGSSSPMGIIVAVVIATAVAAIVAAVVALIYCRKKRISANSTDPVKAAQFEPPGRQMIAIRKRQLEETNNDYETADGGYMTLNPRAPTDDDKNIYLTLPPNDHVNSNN
The description is as above. How it is done: as §3, §4

Another test has as its target T6, human FcγRIIB (human, UniProt P31994 43-310).
T6 construct: whole, on cells; also called hFcγRIIB
T6 sequence (looked up): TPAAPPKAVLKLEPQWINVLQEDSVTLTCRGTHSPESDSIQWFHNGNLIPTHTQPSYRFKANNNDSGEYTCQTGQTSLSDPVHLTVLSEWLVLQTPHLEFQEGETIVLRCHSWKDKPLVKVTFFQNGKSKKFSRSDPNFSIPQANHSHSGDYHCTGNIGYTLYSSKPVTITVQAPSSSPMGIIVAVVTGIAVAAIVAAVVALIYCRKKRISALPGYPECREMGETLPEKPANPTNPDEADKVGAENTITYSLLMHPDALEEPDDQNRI
The test is described as above. As for the experimental part:
as §3, §4

Another test deals with T7, human FcγRIIIA(F176) (human, UniProt P08637 17-254).
T7 construct: whole, on cells
The description is as above. How it is done:
as §3, §4

In another test the target is T8, human FcγRIIIA(V176) (human, UniProt P08637 17-254).
T8 construct: whole, on cells; also called hFcγRIIIA(V176)
The description is as above. As for the experimental part: as §3, §4

The target in a further test is T9, human FcγRIIIB(NA1) (human, UniProt O75015 17-200).
T9 construct: whole, on cells
The description is as above. How it is done:
as §3, §4

For a further test, the target named is T10, human FcγRIIIB(NA2) (human, UniProt O75015 17-200).
T10 construct: whole, on cells
Described as above. As for the experimental part: as §3, §4

Another test addresses T11, human FcγRIIIB(SH) (human, UniProt O75015 17-200).
T11 construct: whole, on cells
The test is described as above. As for the experimental part: as §3, §4

T2 sequence (P04054 16-148): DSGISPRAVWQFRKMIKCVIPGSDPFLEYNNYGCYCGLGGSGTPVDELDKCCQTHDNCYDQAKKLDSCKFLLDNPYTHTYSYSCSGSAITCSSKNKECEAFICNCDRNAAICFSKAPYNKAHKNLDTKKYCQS
T1 sequence (P04054 23-148): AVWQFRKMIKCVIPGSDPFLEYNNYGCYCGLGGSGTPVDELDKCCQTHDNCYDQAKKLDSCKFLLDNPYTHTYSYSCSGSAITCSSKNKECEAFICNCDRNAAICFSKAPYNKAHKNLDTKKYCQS
T8 sequence (P08637 17-254 F176V limits assumed): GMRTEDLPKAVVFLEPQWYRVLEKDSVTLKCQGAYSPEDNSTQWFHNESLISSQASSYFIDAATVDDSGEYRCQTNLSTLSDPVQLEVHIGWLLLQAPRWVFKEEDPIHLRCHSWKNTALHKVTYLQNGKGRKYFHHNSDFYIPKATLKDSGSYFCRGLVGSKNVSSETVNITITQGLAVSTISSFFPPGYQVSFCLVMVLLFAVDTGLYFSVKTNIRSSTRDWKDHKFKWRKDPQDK
T3 sequence (P12314 16-374): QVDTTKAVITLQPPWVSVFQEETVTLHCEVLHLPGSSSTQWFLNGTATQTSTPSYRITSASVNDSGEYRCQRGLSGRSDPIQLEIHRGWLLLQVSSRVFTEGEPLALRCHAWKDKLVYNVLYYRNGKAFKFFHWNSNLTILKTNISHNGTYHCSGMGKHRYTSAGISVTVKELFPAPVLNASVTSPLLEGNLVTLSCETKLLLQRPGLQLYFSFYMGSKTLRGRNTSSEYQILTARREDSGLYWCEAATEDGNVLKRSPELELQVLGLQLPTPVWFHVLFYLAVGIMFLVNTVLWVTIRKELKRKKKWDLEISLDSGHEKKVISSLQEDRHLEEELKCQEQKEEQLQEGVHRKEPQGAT
T9 sequence (O75015 other isoform, or with tags, fused parts or gaps): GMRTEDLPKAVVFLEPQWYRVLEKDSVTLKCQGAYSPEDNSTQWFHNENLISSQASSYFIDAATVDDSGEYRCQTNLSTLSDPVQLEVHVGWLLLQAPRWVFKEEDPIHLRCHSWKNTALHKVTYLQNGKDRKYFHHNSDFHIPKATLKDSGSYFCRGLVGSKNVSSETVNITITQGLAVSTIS
T11 sequence (O75015 17-200 N65S/A78D): as the sequence (O75015 other isoform, or with tags, fused parts or gaps) above, with R20S, N49S, A62D, D66N, V90I counted along it
T7 sequence (P08637 17-254): as the sequence (P08637 17-254 F176V limits assumed) above, with V160F counted along it
T10 sequence (O75015 17-200 N65S): as the sequence (O75015 other isoform, or with tags, fused parts or gaps) above, with R20S, N49S, D66N, V90I counted along it

B1: humanized antibody #2B1 (mutations L234A & L235E) (antibody, human IgG1, kappa)
heavy: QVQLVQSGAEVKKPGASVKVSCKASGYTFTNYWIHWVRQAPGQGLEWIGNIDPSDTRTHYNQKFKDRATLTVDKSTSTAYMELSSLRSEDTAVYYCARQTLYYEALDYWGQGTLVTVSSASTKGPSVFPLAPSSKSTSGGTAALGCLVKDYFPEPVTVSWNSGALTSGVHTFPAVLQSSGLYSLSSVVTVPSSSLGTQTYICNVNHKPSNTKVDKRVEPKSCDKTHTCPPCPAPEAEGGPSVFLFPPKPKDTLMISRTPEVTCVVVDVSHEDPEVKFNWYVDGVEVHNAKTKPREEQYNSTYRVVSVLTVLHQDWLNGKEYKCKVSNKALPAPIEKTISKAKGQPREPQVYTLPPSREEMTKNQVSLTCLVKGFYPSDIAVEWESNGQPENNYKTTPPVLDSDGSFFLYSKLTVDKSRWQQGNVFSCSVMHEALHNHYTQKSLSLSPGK
light: EIVMTQSPATLSVSPGERATLSCKASQDVSTAVAWYQQKPGQAPRLLIYWASTRHTGIPARFSGSRSGTEYTLTISSLQSEDFAVYYCQQDYSTPPTFGGGTKVEIKRTVAAPSVFIFPPSDEQLKSGTASVVCLLNNFYPREAKVQWKVDNALQSGNSQESVTEQDSKDSTYSLSSTLTLSKADYEKHKVYACEVTHQGLSSPVTKSFNRGEC
notes: #2B with L234A and L235E in the heavy chain constant region; also called Ab #2B1; copies: 2 + 2
In the case of B1, the Kd (commonly the equilibrium constant for the complex coming apart) in test [1] stood at 0.729 nM; in test [2] it was 853 nM. Moreover, the koff (in general, a measure of how fast the partners let go of each other) is 0.00203 s⁻¹ in [1] and 0.155 s⁻¹ in [2]. Further, the kon (as a rule, a measure of how fast the partners come together) came to 2.78e+06 M⁻¹ s⁻¹ in test [1] and 181000 M⁻¹ s⁻¹ in test [2]. Moreover, the t½ (as a rule, how long it takes for the measured level to halve) in [1] is 5.7 min; in [2] it was 0.074 min. The binding result with human FcγRI, in the test with human FcγRIIA (H131), with human FcγRIIA(R131), with human FcγRIIB, with human FcγRIIIA(F176) and with human FcγRIIIA(V176) was “no binding (tested: 100 ng/mL)” in each case. Moreover, the binding result with human FcγRIIIB(NA1), with human FcγRIIIB(NA2) and with human FcγRIIIB(SH) was “no binding (tested: 100 ng/mL)” each time.

B2: humanized antibody #2B2 (mutations L234A, L235E and P331S) (antibody, human IgG1, kappa)
heavy: QVQLVQSGAEVKKPGASVKVSCKASGYTFTNYWIHWVRQAPGQGLEWIGNIDPSDTRTHYNQKFKDRATLTVDKSTSTAYMELSSLRSEDTAVYYCARQTLYYEALDYWGQGTLVTVSSASTKGPSVFPLAPSSKSTSGGTAALGCLVKDYFPEPVTVSWNSGALTSGVHTFPAVLQSSGLYSLSSVVTVPSSSLGTQTYICNVNHKPSNTKVDKRVEPKSCDKTHTCPPCPAPEAEGGPSVFLFPPKPKDTLMISRTPEVTCVVVDVSHEDPEVKFNWYVDGVEVHNAKTKPREEQYNSTYRVVSVLTVLHQDWLNGKEYKCKVSNKALPASIEKTISKAKGQPREPQVYTLPPSREEMTKNQVSLTCLVKGFYPSDIAVEWESNGQPENNYKTTPPVLDSDGSFFLYSKLTVDKSRWQQGNVFSCSVMHEALHNHYTQKSLSLSPGK
light: EIVMTQSPATLSVSPGERATLSCKASQDVSTAVAWYQQKPGQAPRLLIYWASTRHTGIPARFSGSRSGTEYTLTISSLQSEDFAVYYCQQDYSTPPTFGGGTKVEIKRTVAAPSVFIFPPSDEQLKSGTASVVCLLNNFYPREAKVQWKVDNALQSGNSQESVTEQDSKDSTYSLSSTLTLSKADYEKHKVYACEVTHQGLSSPVTKSFNRGEC
notes: #2B with L234A, L235E and P331S in the heavy chain constant region; also called Ab #2B2; #2B2 humanized mAb; copies: 2 + 2
As to B2, the results for the Kd in [1] and in [2] were 0.796 nM and 880 nM, respectively. Besides, the koff is 0.00247 s⁻¹ in test [1] and 0.146 s⁻¹ in [2]. The values for the kon in [1] and in test [2] were 3.02e+06 M⁻¹ s⁻¹ and 164000 M⁻¹ s⁻¹, respectively. Also, the results for the t½ in [1] and in [2] were 4.7 min and 0.079 min, respectively. Further, the binding result with human FcγRI, with human FcγRIIA (H131), with human FcγRIIA(R131), with human FcγRIIB, in the test with human FcγRIIIA(F176) and with human FcγRIIIA(V176) was “no binding (tested: 100 ng/mL)” throughout. Also, the binding result in the test with human FcγRIIIB(NA1), in the test with human FcγRIIIB(NA2) and with human FcγRIIIB(SH) was “no binding (tested: 100 ng/mL)” throughout.
